In article PMC3544810:

Target: PSD95 (HA-PSD95, VN-PSD95 plasmids) (UniProt P31016)
Assay: co-immunoprecipitation, GFP-SPIN90 and HA-PSD95
Conditions: reference: GFP-SPIN90 WT; sites Y85,Y161,Y227

binding against the reference: weaker
Substance: SPIN90 (from UniProt Q9NZQ3) GFP-SPIN90 YF (Y85,161,227F)
